According to patent EP3926342A1:

Legend:
[1] = target: recombinant human ICAM-1/CD54 (R&D Systems) (human) (UniProt P05362)
[2] = target: human rhinovirus strain RV89 (major group RV-A), purified virus (human rhinovirus) (UniProt P07210); test: fluid phase competition ELISA: RV89 (25 µg/ml) pre-incubated with 50 µg/ml soluble ICAM-1, then added to plate-bound ICAM-1
[3] = target: human rhinovirus strain RV2 (minor group RV-A), purified virus (human rhinovirus) (UniProt P04936); test: fluid phase competition ELISA: RV2 (5 µg/ml as printed here) pre-incubated with 50 µg/ml soluble LDLR, then added to plate-bound LDLR
[4] = target: biotinylated RV89 (human rhinovirus) (UniProt P07210)
Sequence of biotinylated RV89 (human rhinovirus) (P07210 2-866): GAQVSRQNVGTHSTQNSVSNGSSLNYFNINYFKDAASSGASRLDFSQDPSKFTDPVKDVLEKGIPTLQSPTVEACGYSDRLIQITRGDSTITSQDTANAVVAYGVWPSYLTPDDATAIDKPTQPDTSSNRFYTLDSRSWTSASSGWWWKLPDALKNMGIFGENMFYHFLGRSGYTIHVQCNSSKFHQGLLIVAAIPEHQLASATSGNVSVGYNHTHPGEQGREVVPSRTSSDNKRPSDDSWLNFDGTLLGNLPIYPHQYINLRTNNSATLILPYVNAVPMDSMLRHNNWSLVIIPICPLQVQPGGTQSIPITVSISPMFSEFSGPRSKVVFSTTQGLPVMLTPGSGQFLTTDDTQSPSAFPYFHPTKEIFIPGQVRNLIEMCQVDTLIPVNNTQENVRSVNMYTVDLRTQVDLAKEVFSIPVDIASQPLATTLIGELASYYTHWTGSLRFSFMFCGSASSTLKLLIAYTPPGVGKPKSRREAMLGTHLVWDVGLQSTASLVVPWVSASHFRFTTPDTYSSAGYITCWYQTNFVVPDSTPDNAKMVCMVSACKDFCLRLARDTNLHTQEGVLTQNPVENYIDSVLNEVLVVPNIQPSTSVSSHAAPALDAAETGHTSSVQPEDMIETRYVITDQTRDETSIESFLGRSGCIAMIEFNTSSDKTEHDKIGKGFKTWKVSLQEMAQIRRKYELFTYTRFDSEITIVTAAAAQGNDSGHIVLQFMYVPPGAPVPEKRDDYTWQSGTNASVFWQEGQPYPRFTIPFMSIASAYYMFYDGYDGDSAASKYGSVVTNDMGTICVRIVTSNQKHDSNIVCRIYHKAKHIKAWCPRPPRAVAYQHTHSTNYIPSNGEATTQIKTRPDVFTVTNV

Sequence of recombinant human ICAM-1/CD54 (R&D Systems) (human) (P05362 28-480 limits assumed): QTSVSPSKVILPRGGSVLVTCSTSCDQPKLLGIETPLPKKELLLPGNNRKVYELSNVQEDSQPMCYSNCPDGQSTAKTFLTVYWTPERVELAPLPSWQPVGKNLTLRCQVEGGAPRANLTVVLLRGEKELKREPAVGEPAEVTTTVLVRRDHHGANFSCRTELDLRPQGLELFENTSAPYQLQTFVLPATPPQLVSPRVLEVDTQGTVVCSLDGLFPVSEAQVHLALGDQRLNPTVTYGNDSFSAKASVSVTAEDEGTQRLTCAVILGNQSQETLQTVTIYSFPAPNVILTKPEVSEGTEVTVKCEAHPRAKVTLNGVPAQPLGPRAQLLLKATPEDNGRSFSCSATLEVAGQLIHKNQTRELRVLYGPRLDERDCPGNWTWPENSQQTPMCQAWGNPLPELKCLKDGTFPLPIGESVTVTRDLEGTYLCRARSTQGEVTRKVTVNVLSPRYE
Sequence of recombinant human ICAM-1/CD54 (R&D Systems) (P05362 28-480 limits assumed): as above
Sequence of human rhinovirus strain RV2 (minor group RV-A), purified virus (human rhinovirus) (P04936 2-850): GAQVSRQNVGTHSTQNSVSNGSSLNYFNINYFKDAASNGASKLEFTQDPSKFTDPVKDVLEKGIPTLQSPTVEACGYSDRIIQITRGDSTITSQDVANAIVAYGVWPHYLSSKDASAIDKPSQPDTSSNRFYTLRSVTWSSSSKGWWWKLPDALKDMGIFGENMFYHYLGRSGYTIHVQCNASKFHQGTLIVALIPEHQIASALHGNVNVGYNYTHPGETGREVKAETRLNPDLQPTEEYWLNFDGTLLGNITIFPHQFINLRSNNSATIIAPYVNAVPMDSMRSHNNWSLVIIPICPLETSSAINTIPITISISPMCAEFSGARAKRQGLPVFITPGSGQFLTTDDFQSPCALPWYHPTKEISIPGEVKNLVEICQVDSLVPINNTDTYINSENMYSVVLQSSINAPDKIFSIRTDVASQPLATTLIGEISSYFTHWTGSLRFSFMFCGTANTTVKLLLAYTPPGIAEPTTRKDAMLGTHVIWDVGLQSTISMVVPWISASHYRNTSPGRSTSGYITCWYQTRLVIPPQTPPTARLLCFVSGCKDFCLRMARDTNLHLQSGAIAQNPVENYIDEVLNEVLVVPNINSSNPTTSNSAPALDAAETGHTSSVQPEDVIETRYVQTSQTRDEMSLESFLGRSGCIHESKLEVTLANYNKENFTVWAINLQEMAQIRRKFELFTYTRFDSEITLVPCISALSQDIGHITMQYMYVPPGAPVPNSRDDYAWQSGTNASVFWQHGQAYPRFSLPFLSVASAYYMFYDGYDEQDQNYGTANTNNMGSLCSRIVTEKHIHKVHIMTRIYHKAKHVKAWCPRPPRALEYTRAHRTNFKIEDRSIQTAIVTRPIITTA
Sequence of human rhinovirus strain RV89 (major group RV-A), purified virus (human rhinovirus) (P07210 2-866): as the sequence (P07210 2-866) above

biotinylated RV89 (from UniProt P07210 2-866)
lowest virus concentration at which binding to ICAM-1 was detected [1]: 6.25 µg/mL

human rhinovirus strain RV89 (major group RV-A), purified virus (from UniProt P07210 2-866)
lowest virus concentration at which binding to ICAM-1 was detected [1]: 6.25 µg/mL

recombinant human ICAM-1/CD54 (R&D Systems) (from UniProt P05362 28-480) (receptor)
percent inhibition of RV89 binding to plate-bound ICAM-1 [2]: > 95%

recombinant human LDLR (R&D Systems) (from UniProt P01130 22-788) (receptor)
percent inhibition of RV2 binding to plate-bound LDLR [3]: > 60%

ultrasensitive Streptavidin-Peroxidase Polymer (Merck) (from UniProt P22629 37-163)
lowest coated concentration of biotinylated RV89 that was detected [4]: 0.625 µg/mL
